Reference: article PMC9525694

Target: T1, Bak (human (endogenous in HeLa)), Q16611
T1 chain: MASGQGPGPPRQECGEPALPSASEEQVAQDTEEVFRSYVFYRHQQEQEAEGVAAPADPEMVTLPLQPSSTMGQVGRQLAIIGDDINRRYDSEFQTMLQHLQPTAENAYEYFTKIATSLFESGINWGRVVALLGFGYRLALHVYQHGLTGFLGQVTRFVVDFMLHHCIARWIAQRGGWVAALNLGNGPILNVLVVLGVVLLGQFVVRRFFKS
Test: native gel or EMSA; BN-PAGE (6-16.5% gradient, 4 °C) of mitochondria from uninfected HeLa cells incubated with recombinant tBid for 30 min, lysed in 1% digitonin; Western blot for Bak
Conditions: remark: other sources report otherwise

stoichiometry N: 2
B1: Bak, Q16611 1-211 (natural protein)
chain: T1 chain
